Measurements as given in article PMC12546588 (Nature Communications, 2025).
One block for each binder: values may come before it.

Key:
[1] = target: human TRPC3 channel (hTRPC3), WT full length, tetramer in nanodiscs (human, UniProt Q13507); assay: cryo-EM structure
cryo-EM structure = target: the molecule itself; assay: cryo-EM structure

- stoichiometry N [1]: 2 nanobody molecules per hTRPC3 tetramer
B1: Nanobody 3-37 (VHH)
VHH: QVQLQESGGGSVQSGGSLRLSCAASGYTYSRSCLGWFRQAPGKERERVATIDSDGSTSYADSVKGRFTISQDNAKNTLYLQMNSLKSEDTAMYYCASKYGSRCQNSLGYMYRGQGTQVTVSS

- stoichiometry N [1]: 4 nanobody molecules per hTRPC3 tetramer
B2: Nanobody 1-94 (VHH)
VHH: QVQLQESGGGSVQSGGSLRLSCAASGYTYSYSGYCMGWFRQAPGKEREGVATIDGAGNTKYADSVKGRFTISRDNAKKTLYLQMNSLKPEDTAMYYCAARVYSYSSDVDCRPSFTTRFPYSGQGTQVTV

- stoichiometry N [1]: 4 nanobody molecules per hTRPC3 tetramer
B3: Nanobody 1-25 (VHH)
VHH: QVQLQESGGGSVQSGGSLRLSCAASGDKNYYMGWFRQAPGKEREGVAAIKSDGETRYADSSVTGRFTISQDNAKKTLYLQMTSLKPEDTAMYYCAADRYIGTRWKYVRPEDYSYWGQGTQVTVSS

B4: human TRPC3 channel (hTRPC3), WT full length, tetramer in nanodiscs (natural protein, UniProt Q13507 86-921, looked up)
chain: MREKGRRQAVRGPAFMFNDRGTSLTAEEERFLDAAEYGNIPVVRKMLEESKTLNVNCVDYMGQNALQLAVGNEHLEVTELLLKKENLARIGDALLLAISKGYVRIVEAILNHPGFAASKRLTLSPCEQELQDDDFYAYDEDGTRFSPDITPIILAAHCQKYEVVHMLLMKGARIERPHDYFCKCGDCMEKQRHDSFSHSRSRINAYKGLASPAYLSLSSEDPVLTALELSNELAKLANIEKEFKNDYRKLSMQCKDFVVGVLDLCRDSEEVEAILNGDLESAEPLEVHRHKASLSRVKLAIKYEVKKFVAHPNCQQQLLTIWYENLSGLREQTIAIKCLVVLVVALGLPFLAIGYWIAPCSRLGKILRSPFMKFVAHAASFIIFLGLLVFNASDRFEGITTLPNITVTDYPKQIFRVKTTQFTWTEMLIMVWVLGMMWSECKELWLEGPREYILQLWNVLDFGMLSIFIAAFTARFLAFLQATKAQQYVDSYVQESDLSEVTLPPEIQYFTYARDKWLPSDPQIISEGLYAIAVVLSFSRIAYILPANESFGPLQISLGRTVKDIFKFMVLFIMVFFAFMIGMFILYSYYLGAKVNAAFTTVEESFKTLFWSIFGLSEVTSVVLKYDHKFIENIGYVLYGIYNVTMVVVLLNMLIAMINSSYQEIEDDSDVEWKFARSKLWLSYFDDGKTLPPPFSLVPSPKSFVYFIMRIVNFPKCRRRRLQKDIEMGMGNSKSRLNLFTQSNSRVFESHSFNSILNQPTRYQQIMKRLIKRYVLKAQVDKENDEVNEGELKEIKQDISSLRYELLEDKSQATEELAILIHKLSEKLNPSMLRCE
- stoichiometry N (cryo-EM structure): 4 subunits
